Data from the nanobody polyreactivity screen of Harvey et al. (2022).

Test: yeast display, Sf9 membrane polyspecificity reagent, FACS + sequencing; frameworks hold sequencing errors
Method in brief: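 Galactose induction of a Saccharomyces cerevisiae BJ5465 synthetic nanobody display library ran 36–48 hours. The cells were then stained for 1 hour at 4 °C with 10% biotinylated, detergent-solubilized Sf9 membrane reagent, pulled down on streptavidin microbeads and FACS-sorted into low and high (top ~1%) gates on expression and reagent-binding fluorescence. Labels for polyreactivity follow the gate of origin.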

Row | Sequence | polyreactivity (PSR sort gate)
1 | QVQLVESGGGLVQAGGSLRLSCAASGRTFYYYARGWYRQAPGKEREVVASITSGDGTYYADSVQGRFTISRDYAQNTVYLQMNSLKPEATAVYYCAADIFYKFSYYPWYPYRDYYYWGQGTQVTVSS | low polyreactivity
2 | QVQLVDSGGGLVQAGGSLRLSCAASGYIFHLYGMGWYRQAPGKERELVARISYRGGSTYYADSVKGRFTISRDNAKNTVYLQMHSLKPEDTAVYYCAKDYYKHYYWGQGTQVTVSS | high polyreactivity
3 | QVQLVESGGGLVQAGGSLRLSCAASGSTFPDYAMGWYRQAPGKERELVAAISGDSDDTYYADSVKGRFTISRDNAKNTVYLQMNSLKPEDTAVYYCAARRGRAVYSVAYDYWGQATQVTVSS | high polyreactivity
4 | QVQLVESGGGLVQAGGSLRLSCADSGSIFVKNAMGWYRQAPGKERELVATISTGGRTYYADSVKGRFTISLDNAKNTVYLQMNSLKPEDTAVYYCATDFYPRYLLRTYRPYYYWGQGTQVTVSS | low polyreactivity
5 | QVQLVESGGGLVQAGGSLRLSCAASGSIFNTYAMGWYRQAPGKERELVAAITWSGGSTYYADSVKGRFTISRDNAKNTVYLQMNSLKPEDTAVYYCAARQRRQSYWGQGTQVTVSS | high polyreactivity
6 | QVQLVDSGGGLVQAGGSLRLSCPASGFNFYRNAMGSYRQAPGKERELVAAISGSGGRTYYADSVKGRFTISRDNAKNTVYLQMNSLKPEDTAVYYCATDYAYSPYRYWTRYDYWGQGTQVTVSS | high polyreactivity
7 | QVQLVESGGGLVQAGGSLRLSCAASGSIFRYYAMGWYRQAPGKERELVAVITRGGSTYYADSVKGRFTISRDNAKNTVYLQMNRLKPEDTAVYYCAADFWPAGLDRGYWGQGTQVTVSS | low polyreactivity
8 | QVQLVESGGGLVQAGGSLRLSCAASGLTFASYAMGWYRQAPGKERELVARISRSGGSTYYADSVKGRFTISRDNAKNTVYLQMNSLKPEDTAVYYCAADYIFRRYPVGGIYDYDYWGQGTQVTVSS | high polyreactivity
9 | QVQLVESGGGLVQAGGSLRLSCAASGSIFNANAMGWYRQAPGKERELVAGIRSGSSTNYADSEKGRFTISRDNAKNTVYLQMNSLKPEDTAVYYCATEGYWVYGFDDEYWGQGTQVTVSS | low polyreactivity
10 | QVQLVESGGGLVQAGGSLRLSCAASGFIFGINAMGWYRQAPGKERELVATITSGGGTNYADSVKGRFTISRDNAKNTVYLQMNSLKPEDTAVYYCAKAPDTQTSWSRQEGNYWGQGTQVTVSS | low polyreactivity
11 | QVQLVESGGGLVQAGGSLRLSCAASGFTLVGYAMGWYRQAPGKERELVADINYSGGRTYYADSVKGRFTISRDNAKNTVYLQMNSLNPEDTAVYYCNAAGALSWFYYGYDYWGQGTQVTVSS | low polyreactivity
12 | QVQLVESGGGLVQAGGSLRLSCAASGIIFGSNAMGWYRQAPGKERELVAAITSGGNTYYADSVKGRFTISRDNAKNTVYLQMNSLKPEDTAVYYCAARRPRRYGYWGQGTQVTVSS | high polyreactivity
13 | QVQLVESWGGFVQAGGSLRLSCAASGSIFKGYVMGWYRQAPGKERELVAAISGSGGSTYYADSVKGRFTISRDNAKNTVYIQMNSLKPEDTAVYYCAARYRYWGGSGFKGFDYWGQGTQVTVSS | high polyreactivity
14 | QVQLVESGGGLVQAGGSLRLSCAASGRTFFPYAMGWYRQEPGKERELVADIRRGGSTYYADSVKGRFTISRDNAKNNVYLQMYSLKPEDTAVYYCNVDFWWNRLYELDYWGQGTQVTVSS | high polyreactivity
15 | QVQLVESGGGLVQAGGSLRLSCAASGSLFPHYAMGWNRQAPGKEREFVATISGSTGRTYYADSVKGRFTISRDNAKNTVYLQMNSLKPEDTAVYYCATSVGYYLPPIKYDYWGQGTQVTVSS | low polyreactivity
16 | QVQLVESGGGLVQAGGSLRLSCAASGRIFQYNTMGWYRQAPGKERELVAGISSGGSTNYADSVKGRFTISRDNAKNTVYLQMNSLKPEDTAVYYCAARAKRYNVRFDYWGQGTQVTVSS | high polyreactivity
17 | QVQLVESGGGLVQAGGSLRLSCAASGIIFNHYAMGWYGQAPGKERELVAAISRRGGSTYDADSVKGRFTISRDNAKNTVYLQMNSLKPEDTAVYYCNDRSFATGSKVPARGYWGQGTQVTVSS | high polyreactivity
18 | QVQLVESGGGLVQAGGSLRLSCAASGRTFNLNAMGWYRQAPGKEREFVAAISNSGVRTYYADSVKGRFTISRDNAKNTVYLQMNSLKPVDTAVYYCARTYQVGDSIDDYWGQGTQVTVSS | low polyreactivity
19 | QVQLVESGGGLVQAGGSLRLSCAASGFIFLVNAMGWYSGAPGKERELVAAISKSTGGTYYADSVKGRFTISRDNAKNTVYLQMNSLKPEDTAVYYCAADEVYPVQRDMDYWGQGTQVTVSS | low polyreactivity
20 | QVQLVESGGCLVQAGRSLRLRCAASARTIGSNAMGCYRQAPGKARELVDAISSRGGSTYYADSVKGRITISRDNAKNTVYLQMNSLYPEDTAVYYCDSEYYPHTTYLSDNWGQGTQETVSS | high polyreactivity
21 | QVQLVESGGGLVQAGGRLRLRCAASGSTFGYYAMGWYRQAPGKERELVAAISRSGGITYYADSVKGRFTISRDNAKNTVYLQMNSLKPEDTAVYYCAADRNRYTGEDDSWGEGTQVTVSS | low polyreactivity
22 | QVQLVESGGGLVQAGGSLRLSCAASGSTLSSYDMGWYRQAPGKERELVASISSGGSTYYADSVKGRFTISRDNAKNTVYLQMNSVKPEDTAVYYCLYWSYDWGQGTQVTVSS | low polyreactivity

Row | Sequence | polyreactivity (PSR sort gate)
23 | QVQLVESGGGLVQAGGSLRLSCAASGRIFTKNTMGWYRQAPGKERELVAAIRSRAGSTYYADSVKGRFTISRDNAKNTVYLQMNSLKPEDTAVYYCAVPWFRSVDFDYWGQGTQVTVSS | low polyreactivity
24 | QVQLVESGGGLVQAGGSLRLSCAASGNIFPYYTMGWYRQAPGKERELVAAISSSGSTYYADSVKGRFTISRDNAKNTVYLQMNSLKPEDTAVYYCAARLYPYGWYDYWGQGTQVTVSS | high polyreactivity
25 | QVQLVESGGGLVQAGGSLRLSCAASGSTIPSYALGWYRPAPGKERELGASITYSDGTTRYADSVKARFTISRDNAKNTVYLQMNSLKPEDTAVYYCNAVYYREGMDYWGQGTQVTVSS | low polyreactivity
26 | QVQLVESGGGLVQAGGSLRLSCAASGLTFYPYTMGWYRQAPGKERELVAAISSGGSTYYADSVKGRFTISRDNAKNTVYLQMNSLKPEDTAVYYCAARYPYFSYGYWGQGTQVTVSS | high polyreactivity
27 | QVQLVESGGGLVQAGGSLRLRCAASGRTFYGYDMGWYRQAPGKERELVATISSGGSTNYADSVKGRFTFSRDNAKNTVYLQMNSLKPEDTAVYYCNADRYVDPRTYFGYDYCGQGTQVTVSS | low polyreactivity
28 | QLQLVESGGGLVQAGGSLRLSCAASGRIFYVNAMGWYRPAPGKERELVAAISRSGSSTYYADSVKGRFTISRDNAKNTVYLQMNSLKPEDTADYYCAARYYGRSQHHFDYWGQGTQVTVSS | high polyreactivity
29 | QVQLVESGGGLVQAGGSLRLSCAASGRIYINNAMGWYRQAPGKDREFVAAITSGGRTYYADSVKGRFTISRDNAKYTVYLQMNSLKPEDTAVYYCAPRYYRQYTRHYGYGYWGQGTQVTVSS | high polyreactivity
30 | QVQLVESGGGLVQAGGSLRLSCAASGFIFSYYAMGWYRQAPGKERELVAGITRSGGSTYYADSVKGRFTISRDNAKNTVYLQMNSLKPEDTAVYYCAAGYFYHFSRYTNRYGYWGQGTQVTVSS | high polyreactivity
31 | QVQLVESGGGLVQAGGSLRLSCAASGFTFRLYAMGWYRQAPGKERELVAAISWGGGSTYYADSVKGRFTISRDNAKNTLYLQMNSLKPEDTAVYYCAAYKYGYRYYYWGQGTLVTVSS | high polyreactivity
32 | QVQLVESGGGLVQAGGSLRLSCAASGSNFSYYDMGWYRQAPGKERELVAAISWNGGTTYYADSVKGRFTISRDNAKNTVYLQMNSLKPEDTAVYYCAATWDFYWAPYDSWGQGTQVTVSS | low polyreactivity
33 | QVQLVESGGGLVQAGGSLRLSCAASGSTFLLYAMGWYRPAPGKERELVATISWGGDGTYYADSVKGRFTISRDNAKNTVYLHLNSLKPEDSAVYYCAAYSYFGYYWDGQLPYRLPYDYWGQGTQVTLSS | low polyreactivity
34 | QVQLVESGGGLVQAGGSLRLSCAASGSIFGVYTMGWYRQAPGKERELVAAITRSGGSTYYADSVKGRFTISRDNAKNTVYLQMNSLKPEDTAVYYCAARRAYVWCSQGYAHFEYWGQGTQVTVSS | high polyreactivity
35 | QVQLVESGGGLVQAGGSLRLSCAASGSTFKSYAMGWYRQEPGKERELVAAITVSGGSTYYADSVKGRFTISRDNAKNTVYLQMNSLKPEDTAVYYCAADSVLLKDTGYDYWGQGTQVTVSS | low polyreactivity
36 | QVQLVESGGGLVQAGGSLRLSCAASGSTSYVYAMGWYRQAPGKERELVAAISGSGGRTYYADSVKGRFTISRDNAKNTVYLQMNSLKPEDTAVYYCNALPRPSYPFDYWGQGTQVTVSS | high polyreactivity
37 | QVQLVESGGGLVQAGGSLSLSCAASGSTFVVNAMGWYRQAPGKERELVAAITQSGGSTFYADSVKGRFPISRDNAKNTVYLQMNSLKPEDTAVYYWGQGTQVTVSS | low polyreactivity
38 | QVQLVESGGGLVQAGGSLRLSCAASGFTFAVYAMGWYRQAPGKERELVAAISRSGTRTYYADSVKGRFTISRDNAKNTVYLQMNSLKPEDTAVYYCAADKYRHGYDYWGQGTQVTVSS | low polyreactivity
39 | QVQLVESGGGLVQAGGSLRLSCAASGRIFGWNAMGWYRQAPGKERELVAVIDTGGSTNYADSVKGRFTISRDNAKNTVYLQMNSLKPEDTAVYYCAAVTGIRYFTSEYDYWGQGTQVTVSS | low polyreactivity
40 | QVQLVESGGGLVQAGGSLRLSCAASGSIFGYNSMGWDRQAAGKERELVAAIYSGGNTYYADSVKGRFTISRDNAKNTVYLQMNSLKPEDTAVYYCAADGYDDSTSRWYEYWGQGSQVTVSS | low polyreactivity
41 | QVQLVESGGRLVQAGGSLRLSCAASGSIFLAYAMGWYRQAPGKEREFVAAISFSDGSTYYADSVKGRFTISRDNAKNTVYLQMNSLKPEDTAVYYCNKGASPDDYDYWGQGTQVTVSS | low polyreactivity
42 | QVQLVESGGGLVQAGGSLRLSCAASGSIFYYNAMGWYRQAPGQERELVAGINYSGGSTYYADSVKGRFTISRDNAKNTVYLQMNSLIPEDTADYYCAARPRYLNARKYYYWGLGTQVTVSS | high polyreactivity
43 | QVQLVESGGGLVQAGGSLRLSCAASGGIFLPYAMGWYRQAPGKERELVAGITSVGSTYADSVKGRFTISRDNAKNTVYLQMNSLKPEDTAVYYCNADIYFVEYDYWGQGTQVTVSS | low polyreactivity
